From publication PMC7988490, “Molecular insights into replication initiation in a multipartite genome harboring bacterium Deinococcus radiodurans” (The Journal of Biological Chemistry, 2020) come the findings set out here.

For orientation: Kd means the constant that tells how readily two partners part at equilibrium.

Data set [1] has as its target T1, drDnaB (DnaB) (Deinococcus radiodurans R1 (ATCC13939)) (UniProt Q9RWW6).
T1 sequence: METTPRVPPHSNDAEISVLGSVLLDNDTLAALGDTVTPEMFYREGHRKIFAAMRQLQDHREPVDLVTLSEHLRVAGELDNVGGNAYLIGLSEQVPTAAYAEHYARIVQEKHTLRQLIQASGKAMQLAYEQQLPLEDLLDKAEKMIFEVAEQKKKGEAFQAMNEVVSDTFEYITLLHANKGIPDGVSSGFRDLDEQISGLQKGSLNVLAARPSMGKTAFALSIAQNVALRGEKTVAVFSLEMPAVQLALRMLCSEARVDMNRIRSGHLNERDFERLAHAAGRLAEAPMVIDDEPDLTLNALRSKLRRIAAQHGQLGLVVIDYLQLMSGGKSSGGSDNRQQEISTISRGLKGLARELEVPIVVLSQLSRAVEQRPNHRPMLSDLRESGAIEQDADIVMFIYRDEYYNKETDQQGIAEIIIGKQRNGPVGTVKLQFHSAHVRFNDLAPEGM
Put plainly: EMSA. The note with it: nonspecific, EMSA: 50 mM Tris-HCl pH 8.0, 75 mM KCl, 5 mM MgSO4, 0.1 mM DTT, ~30 nM 32P-DNA, 37 C 15 min. (In general: Mobility shift assays separate free from complexed probe on a gel.)

For data set [2], the target named is T2, recombinant drDnaA, purified (D. radiodurans, UniProt Q9RYE7 1-466).
T2 construct: DnaA of Deinococcus radiodurans, DR_0002
T2 sequence (looked up): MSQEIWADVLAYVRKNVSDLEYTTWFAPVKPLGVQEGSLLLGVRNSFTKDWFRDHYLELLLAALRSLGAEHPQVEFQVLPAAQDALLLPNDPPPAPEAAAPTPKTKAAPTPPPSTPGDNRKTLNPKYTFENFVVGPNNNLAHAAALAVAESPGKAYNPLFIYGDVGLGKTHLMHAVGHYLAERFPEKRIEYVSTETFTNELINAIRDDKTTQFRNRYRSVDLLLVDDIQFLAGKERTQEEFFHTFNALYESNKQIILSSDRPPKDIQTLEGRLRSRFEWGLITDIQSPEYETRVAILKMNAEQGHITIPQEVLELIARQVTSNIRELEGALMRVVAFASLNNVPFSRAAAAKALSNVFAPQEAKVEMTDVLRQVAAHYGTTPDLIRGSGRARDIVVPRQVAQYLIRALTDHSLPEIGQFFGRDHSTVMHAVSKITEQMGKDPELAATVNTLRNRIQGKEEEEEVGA
Put plainly: SPR; 20 μM PprA immobilised on a bare gold sensor chip by EDC-NHS at 20 °C (~200 response units); 4–20 μM drDnaA or drDnaB incubated with 1 mM ATP and 1 mM MgCl2 in the mobile phase; 20 mM Tris pH 7.6; Autolab Esprit. Conditions: both partners purified.

For data set [3], the target named is T3, recombinant drDnaB, purified (D. radiodurans, UniProt Q9RWW6 1-448).
T3 construct: DnaB of Deinococcus radiodurans, DR_0549; the drdnaB gene was PCR amplified from genomic DNA of D. radiodurans R1 and cloned in pET28a(+) at BamHI and EcoRI
T3 sequence (looked up): T1 sequence
Described as above. The note with it: both partners purified.

The target in data set [4] is T4, drDnaB (DnaB) (Deinococcus radiodurans R1 (ATCC13939), UniProt Q9RWW6 1-448).
T4 sequence: T1 sequence
Put plainly: EMSA; ATPgS; EMSA: 50 mM Tris-HCl pH 8.0, 75 mM KCl, 5 mM MgSO4, 0.1 mM DTT, +/- 1 mM ATP, ~30 nM 32P-DNA, 37 C 15 min. The note with it: protein: recombinant; tags: N-terminal 6xHis (pET28a); chain copies: 6; label: 32P 5' end.

The target in data set [5] is T4, drDnaB (DnaB). Put plainly: EMSA; no ATP; EMSA: 50 mM Tris-HCl pH 8.0, 75 mM KCl, 5 mM MgSO4, 0.1 mM DTT, +/- 1 mM ATP, ~30 nM 32P-DNA, 37 C 15 min. The note with it: protein: recombinant; tags: N-terminal 6xHis (pET28a); chain copies: 6; label: 32P 5' end.
Data set [6] deals with T4, drDnaB (DnaB). Put plainly: EMSA; 1 mM ATP; EMSA: 50 mM Tris-HCl pH 8.0, 75 mM KCl, 5 mM MgSO4, 0.1 mM DTT, +/- 1 mM ATP, ~30 nM 32P-DNA, 37 C 15 min. Conditions: protein: recombinant; tags: N-terminal 6xHis (pET28a); chain copies: 6; label: 32P 5' end.

On to oriCI 500 bp (13 DnaA boxes), for which the Kd came out at 8230 nM in data set [1] (1 mM ATP) and 8890 nM in data set [1] (no ATP, +/- 1 mM ATP).

B1: recombinant PprA (histidine-tagged PprA, His-PprA), purified (natural protein, D. radiodurans, UniProt O32504 1-300, looked up)
chain: MLPLAFLICSGHNKGSMARAKAKDQTDGIYAAFDTLMSTAGVDSQIAALAASEADAGTLDAALTQSLQEAQGRWGLGLHHLRHEARLTDDGDIEILTDGRPSARVSEGFGALAQAYAPMQALDERGLSQWAALGEGYRAPGDLPLAQLKVLIEHARDFETDWSAGRGETFQRVWRKGDTLFVEVARPASAEAALSDAAWDVIASIKDRAFQRELMRRSEKDGMLGALLGARHAGAKANLAQLPEAHFTVQAFVQTLSGAAARNAEEYRAALKTAAAALEEYQGVTTRQLSEVLRHGLRES
As to B1, the Kd in data set [2] turned out to be 541 nM; in data set [3], 971 nM.

B2: ssDNA oligo 99F (40 nt) (ssDNA)
DNA: GGAATTCCAATGAACCGCAAAACCGCAAAAACCGTACCGA
In the case of B2, the results for the Kd in the data set with drDnaB (DnaB) [4], with drDnaB (DnaB) [5] and with drDnaB (DnaB) [6] were 1020 ± 60 nM, 3110 ± 110 nM and 1420 ± 50 nM, respectively.
